“And” between values parts separate entries of the source, which are not always exact repeats. Identical values can stand only once.
Tests used:
human FXIIa = molecular target: T1, human FXIIa (human, UniProt P00748 20-615, limits assumed)
T1 sequence: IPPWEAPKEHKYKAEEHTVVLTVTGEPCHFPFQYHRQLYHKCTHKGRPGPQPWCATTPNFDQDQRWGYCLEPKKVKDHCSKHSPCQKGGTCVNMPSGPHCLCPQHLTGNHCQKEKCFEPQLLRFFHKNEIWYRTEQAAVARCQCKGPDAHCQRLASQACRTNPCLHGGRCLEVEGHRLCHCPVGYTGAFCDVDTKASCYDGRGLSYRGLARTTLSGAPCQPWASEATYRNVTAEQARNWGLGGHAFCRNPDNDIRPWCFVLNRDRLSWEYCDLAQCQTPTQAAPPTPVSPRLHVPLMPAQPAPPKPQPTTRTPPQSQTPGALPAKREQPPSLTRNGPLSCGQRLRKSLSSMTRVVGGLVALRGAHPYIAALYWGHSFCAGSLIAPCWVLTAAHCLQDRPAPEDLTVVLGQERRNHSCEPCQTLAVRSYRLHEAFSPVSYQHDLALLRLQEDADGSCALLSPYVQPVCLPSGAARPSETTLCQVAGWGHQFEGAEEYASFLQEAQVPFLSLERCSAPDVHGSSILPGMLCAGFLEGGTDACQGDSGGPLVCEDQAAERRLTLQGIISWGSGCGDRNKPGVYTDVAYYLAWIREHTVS

human Factor XIIa-alpha = molecular target: T2, human Factor XIIa-alpha (human, UniProt P00748 20-615); test: cell-based or functional assay
T2 sequence: T1 sequence

human Factor XII = molecular target: T3, human Factor XII (human, UniProt P00748 20-615); test: SPR (Biacore), purified IgG captured on anti-mouse Fc antibody, FXII 0-500 nM, 1:1 fit, 25 C
T3 construct: Zymogen bought from Enzyme Research Laboratories; also called FXII
T3 sequence: T1 sequence

human Factor XIIa-beta = molecular target: T4, human Factor XIIa-beta (human, UniProt P00748 354-615, limits assumed); test: SPR (Biacore), purified IgG captured on anti-mouse Fc antibody, FXIIa beta 0-40 nM, 1:1 fit, 25 C
T4 construct: Bought from Enzyme Research Laboratories; also called FXIIa beta; FXIIa-beta
T4 sequence: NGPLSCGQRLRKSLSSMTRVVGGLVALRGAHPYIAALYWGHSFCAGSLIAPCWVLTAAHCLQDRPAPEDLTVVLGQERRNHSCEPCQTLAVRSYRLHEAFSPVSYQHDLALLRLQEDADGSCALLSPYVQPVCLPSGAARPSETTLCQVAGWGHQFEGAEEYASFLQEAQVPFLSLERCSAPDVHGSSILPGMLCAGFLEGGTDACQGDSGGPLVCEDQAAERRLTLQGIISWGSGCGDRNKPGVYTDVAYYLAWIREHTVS

For Anti-human FXII antibody (OT-2), the m3 (parameter of the curve fit, printed in the legend box; x axis Ab in nM) of the inhibition of FXIIa amidolytic activity, OD405 (human FXIIa) was 12.9 and 13.5, the % Inhibition, ratio FXIIa-alpha:Antibody 1:0.1 (human Factor XIIa-alpha) was 21.6% and the % Inhibition, ratio FXIIa-alpha:Antibody 1:0.2 (human Factor XIIa-alpha) was 37.7%. For the same substance, the % Inhibition, ratio FXIIa-alpha:Antibody 1:0.5 (human Factor XIIa-alpha) was 76.6%, the % Inhibition, ratio FXIIa-alpha:Antibody 1:1 (human Factor XIIa-alpha) was 92.7% and the % Inhibition, ratio FXIIa-alpha:Antibody 1:2 (human Factor XIIa-alpha) was 96.9%. It also gave a % Inhibition, ratio FXIIa-alpha:Antibody 1:5 (human Factor XIIa-alpha) of 100%, a % Inhibition, ratio FXIIa-alpha:Antibody 1:10 (human Factor XIIa-alpha) of 100% and a Kd (human Factor XII) of 0.69 nM. It also gave a Kd (human Factor XIIa-beta) of 0.76 nM.

From patent US20200062863A1 (CSL BEHRING, published 2020)
